Measurements from publication PMC5035049, “Solution Structure of the Cuz1 AN1 Zinc Finger Domain: An Exposed LDFLP Motif Defines a Subfamily of AN1 Proteins” (PLoS ONE, 2016).
Residue numbers refer to the chain shown, from its start.

Molecular target: T1, 12xHis-SUMO-Cdc48 (S. cerevisiae, UniProt P25694 1-835)
T1 construct: Cdc48, multifunctional ATPase, S. cerevisiae, full length; also called 12xHis-Sumo-tagged Cdc48; p97 in higher organisms
Experiment: pull-down; GST-tagged Cuz1 species added to 12xHis-Sumo-tagged Cdc48 or to beads alone; bound Cuz1 seen by SDS-PAGE and anti-Cuz1 immunoblot; as previously described in ref. 7
Details: both partners purified

T1 sequence (P25694 whole entry): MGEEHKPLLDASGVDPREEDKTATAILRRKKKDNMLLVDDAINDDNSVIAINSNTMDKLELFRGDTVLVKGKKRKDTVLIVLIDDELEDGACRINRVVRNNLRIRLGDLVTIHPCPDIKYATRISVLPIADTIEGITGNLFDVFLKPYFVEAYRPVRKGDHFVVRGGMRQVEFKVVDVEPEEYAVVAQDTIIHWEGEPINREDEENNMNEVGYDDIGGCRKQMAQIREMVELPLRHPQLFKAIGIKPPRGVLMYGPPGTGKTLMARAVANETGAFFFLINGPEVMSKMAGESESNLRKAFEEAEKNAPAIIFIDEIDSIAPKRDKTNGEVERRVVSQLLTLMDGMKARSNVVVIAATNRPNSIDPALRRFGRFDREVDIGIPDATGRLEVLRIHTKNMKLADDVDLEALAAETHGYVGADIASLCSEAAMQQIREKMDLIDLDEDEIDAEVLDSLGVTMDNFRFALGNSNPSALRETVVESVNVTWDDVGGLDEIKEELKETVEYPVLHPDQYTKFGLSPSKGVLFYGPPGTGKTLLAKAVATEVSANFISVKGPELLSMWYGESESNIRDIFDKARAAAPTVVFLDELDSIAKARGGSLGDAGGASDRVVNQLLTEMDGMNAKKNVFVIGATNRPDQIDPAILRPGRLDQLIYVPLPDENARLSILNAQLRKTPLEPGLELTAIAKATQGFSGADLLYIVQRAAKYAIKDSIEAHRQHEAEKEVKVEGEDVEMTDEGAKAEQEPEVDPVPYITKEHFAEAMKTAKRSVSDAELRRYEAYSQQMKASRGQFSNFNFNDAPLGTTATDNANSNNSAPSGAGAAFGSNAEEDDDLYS

B1: GST-Cuz1, full length wild type (plasmid pJH150) (natural protein, S. cerevisiae, UniProt P53899 1-274, looked up)
chain: MSAAIEKETGMLDVGKHCAYCRQLDFLPFHCSFCNEDFCSNHRLKEDHHCRWLLEHEEVHKTEKSPSKSRDGSSSNDEAYFKSLLPERASVRIQRVSETREPLRGSNTAKVSSTLNSKTLDKIFKFFQRNEKRKSNNKSKKNFGSSSNKIIQLANLKKIAKGDPKIPMQNRIYIWCYLVDGDETDIAKEDTRMPLYINKMWPVGRAMDYLSIQLNVKSSTLTNSSSNDKFQLCKLKEGKQVSFYNIGASLRVTNEIKDLDTLYLVHNNADEKSN
notes: Cuz1 (systematic name Ynl155w), S. cerevisiae, 274 amino acids, full length; also called Ynl155w; GST-tagged Cuz1
- binding result: binds

B2: GST-Cuz1 LDFL→AAAA, full length (plasmid pJH171) (natural protein, S. cerevisiae, UniProt P53899 1-274, looked up)
chain: B1 chain with L24A, D25A, F26A, L27A
notes: Cuz1 (systematic name Ynl155w), S. cerevisiae, 274 amino acids, full length, with LDFL (L24, D25, F26, L27) changed to AAAA; Made by site-directed mutagenesis of pJH150; also called Cuz1^LDFL→AAAA mutant; Cuz1 LDFL mutant
- binding result: binds
